From paper PMC6060171 come the findings set out here.

The target in this test is AcrIIA6 (anti-CRISPR protein of Streptococcus thermophilus virulent phage D1811, product of gene D1811_026) (Streptococcus thermophilus phage D1811). As to the kind of experiment: SEC; gel filtration profile of purified AcrIIA6; size exclusion chromatography in 20 mM Hepes pH 7.5, 150 mM NaCl.

One may read the stoichiometry N as a count of units in the complex or per binding partner. For the substance “AcrIIA6 (anti-CRISPR protein of Streptococcus thermophilus virulent phage D1811, product of gene D1811_026) (natural protein)”, the stoichiometry N was 2.
